Measured values from PMC8266576, “TnpAREP and REP sequences dissemination in bacterial genomes: REP recognition determinants”.
Numbering of substitutions follows the chain as printed.

T1: TnpAREP Ec (TnpAEc-His6) (Escherichia coli, UniProt Q47152 1-165)
T1 sequence: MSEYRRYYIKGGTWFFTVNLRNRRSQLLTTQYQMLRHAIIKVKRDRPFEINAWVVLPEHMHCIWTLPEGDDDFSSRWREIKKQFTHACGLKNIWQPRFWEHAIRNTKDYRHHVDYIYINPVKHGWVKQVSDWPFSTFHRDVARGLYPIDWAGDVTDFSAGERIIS

B1: B268i (61) wt y REPEc (structured_DNA)
DNA: GTAGGACGGATAAGGCGTTTACGCCGCATCCGGCAGTTGTACGCAGGTGCCTGATGCGACG
B2: B2689 mut loop (complement of loop) (structured_DNA)
DNA: B1 DNA with T19A, T20A
B3: B268i (61) GTAC (structured_DNA)
DNA: B1 DNA with G4C
B4: B268i (61) GTGG (structured_DNA)
DNA: B1 DNA with A3G
B5: B2688 del upper stem and loop (structured_DNA)
DNA: GTAGGACGGATAAGCATCCGGCAGTTGTACGCAGGTGCCTGATGCGACG

Target: T1, TnpAREP Ec (TnpAEc-His6)
Assay: EMSA; 2 and 4 uM protein, no divalent metal; EMSA: 12.5 mM Tris pH 7.5, 120 mM NaCl, 1 mM DTT, 20 ug/ml BSA, 0.5 ug poly-dIdC, 7% glycerol, no divalent metal; 0.02 uM labelled + 0.5 uM unlabelled oligonucleotide, 45 min 37 C (standard reaction); 8% native gel (TAE, 7% glycerol) at 4 C
Details: protein: recombinant, tags: His6 (C-terminal by name), chain copies: 2, label: 5'-32P

| Binder | binding result (hairpin with bulge) | binding result |
| --- | --- | --- |
| B1 | binds | – |
| B2 | binds | – |
| B3 | no binding | – |
| B4 | no binding | – |
| B5 | – | no binding |
